The text below walks through data of the supplement of paper PMC9170038.

This data set concerns MS2 coat protein. Description: apparent KD of MS2 coat protein; designed switch direction (-1 OFF switch, 1 ON switch): -1; higher = weaker reporter binding. Summed up:
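SNAP-549-labelled MS2 coat protein was titrated, doubling from 0.7 or 1.5 nM to 3 µM, over designed RNA switches transcribed on Illumina chips by stalled E. coli RNA polymerase. Runs were done without input, with 200 uM small-molecule ligand, or with an oligonucleotide input. Apparent KD is the per-design median over clusters of curve-fitted normalised fluorescence.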

The mark [1] stands for this setting: input ligand: microRNA oligo, concentration not stated.
Setting [2] is: Eterna round: R95, input ligand: FMN 200 uM.
[3] abbreviates: Eterna round: R95, input ligand: microRNA oligo, concentration not stated.
Where [4] appears, read: Eterna round: R95, input ligand: none.

With “CACCUGAAAGCAGGAUAUCUUACAUGAGGAUCACCCAUGUAAUAAAUGAGAAUUUCGAAUGUAAUAGAGAAGGGCUGAAAAGGC [Ostracism 86 - Jieux - Exclusion NG 2] (Eterna round: R96, puzzle: Exclusion NG 2)”, the “apparent KD of MS2 coat protein” value runs as follows: (input ligand: FMN 200 uM) 47 nM; under setting [1], 37.7 nM; (input ligand: none) 40.3 nM.

“UUGGUACUGGUAGGAUAUCCGUUGGAAACCGUCGGAGAAGGACCACAGUCACUGGGUCUUUGUCAAGUGGAGUGGAAGAACCAU [pwkr exNG1 F6.24] (Eterna round: R96, puzzle: Exclusion NG 1)”: the “apparent KD of MS2 coat protein” value came out at 224 nM (input ligand: FMN 200 uM), 221 nM under setting [1] and 227 nM (input ligand: none).

With “AAGGGUGCUUUCAGAACGACAUGAGGAUCACCCAUGUAGACUGAGGAUAUCUACUUCUAAGGACGGGAGAAGGUAGUGUAAUGC [Ex NG3 #67] (Eterna round: R96, puzzle: Exclusion NG 3)”, the “apparent KD of MS2 coat protein” value runs as follows: (input ligand: FMN 200 uM) 19.7 nM; under setting [1], 15.9 nM; (input ligand: none) 21.5 nM.

Consider “GCUCGCGGGCAAGGAUAUCCCACGCUGUUCUGGCCCGUGUCUGUUACAUGAGGAUCACCCAUGUGGGAGAAGGUGCACCAGGGC [Design 45] (Eterna round: R96, puzzle: Exclusion NG 2)”, for which the “apparent KD of MS2 coat protein” value runs as follows: (input ligand: FMN 200 uM) 115 nM; under setting [1], 26.8 nM; (input ligand: none) 44.1 nM.

Take “AUGAGGUUAGGAUAUACAUGAGGAUCACCCAUGUUGGAGGGUAAGGUAGGAGAAGAAAGUAGAAGGAACGGAGC [JR_Exclu3_Sub058] (puzzle: Exclusion 3)”: the “apparent KD of MS2 coat protein” value by setting is: under setting [2], 68.4 nM; under setting [3], 82.5 nM; under setting [4], 99.6 nM.

For “UAAAUGUGAGGAUAUUCGAAGAACACGGAGACGUGUUUUUCGGAGAAGGCACAUGAGGAUCACCCAUGUUCCUU [Mat - Exclusion 4 - JL Mod - D6] (Eterna round: R97, puzzle: Exclusion 4)”, the “apparent KD of MS2 coat protein” value reads like this: (input ligand: FMN 200 uM) 241 nM; (input ligand: none) 29.8 nM.

Regarding “ACAUGAGGAUCACCCAUGUGACCACAAUGGCUGAUGUAGAAACAGGAUAUUCGUGAAUAUCUAACGAAGAAGGGUUAUGACUGG [Deportation 64 - Jieux - Exclusion NG 3] (Eterna round: R96, puzzle: Exclusion NG 3)”, the “apparent KD of MS2 coat protein” value (input ligand: FMN 200 uM) was determined as 62.9 nM, the “apparent KD of MS2 coat protein” value under setting [1] amounted to 61.7 nM and the “apparent KD of MS2 coat protein” value (input ligand: none) was 72.1 nM.

For “GAGUGCCGAGGAUAUACAAAUAUCCGCUAAUUAAUGCGAAAACAUGAGGAUCACCCAUGUAGAAGGCUGCACUC [AK-MS2ROC-r4-exclusion2-3] (Eterna round: R97, puzzle: Exclusion 2)”, the “apparent KD of MS2 coat protein” value (input ligand: FMN 200 uM) is 13.9 nM and the “apparent KD of MS2 coat protein” value (input ligand: none) was 9.44 nM.

Regarding “AAUUUACAUGAGGAUCACCCAUGUGAGGAUAUAUGCAAAUAAUUUUUAUUAAUAAAGCAUAGAAGGCGCGUGAU [JR_Exc1_Sub042] (Eterna round: R97, puzzle: Exclusion 1)”, the “apparent KD of MS2 coat protein” value worked out at 188 nM (input ligand: FMN 200 uM) and 73 nM (input ligand: none).

On to “AUAAUGUCAGGAUAUCAGUCGUACAGCGAUAGCUGUACGACUGAGAAGGGACAUGAGGAUCACCCAUGUGGUCA [E4/6-A4] (Eterna round: R97, puzzle: Exclusion 4)”, for which the “apparent KD of MS2 coat protein” value (input ligand: FMN 200 uM) was 13.3 nM and the “apparent KD of MS2 coat protein” value (input ligand: none) was 18.1 nM.

Turning to “GAGGAGACAGGAUAUACAUGAGGAUCACCCAUGUGAGGAGGAGGAGAGAGGAGAAGGAGUAGAAGGGUCAGAGA [JR_Exclu3_Sub024] (puzzle: Exclusion 3)”, the “apparent KD of MS2 coat protein” value runs as follows: under setting [2], 45.1 nM; under setting [3], 33.7 nM; under setting [4], 73.8 nM.

Consider “CGCUAGUCAGGAUAUACGAACAUGUCAAAAGACGUGAAGGGACAUGAGGAUCACCCAUGUAGAAGGGACUAGCG [Mat - Exclusion 2 - JL mod - D4] (Eterna round: R96, puzzle: Exclusion 2)”, for which the “apparent KD of MS2 coat protein” value is, setting by setting: (input ligand: FMN 200 uM) 256 nM; under setting [1], 21.3 nM; (input ligand: none) 32.2 nM.

On to “AAUAACAGAGGAUAUACUGUUUUAUGUGUUUGUUGUUUUAAACAUGAGGAUCACCCAUGUAGAAGGCUGAGUAA [JMF 34] (puzzle: Exclusion 2)”, for which the “apparent KD of MS2 coat protein” value under setting [3] came out at 21 nM.

Take “CAAAACAGAGGAUAUACAUUUCCUCACCGCCAAAUAGCGGAACAUGAGGAUCACCCAUGUAGAAGGCUGGAAAA [Usenqura] (puzzle: Exclusion 2)”: the “apparent KD of MS2 coat protein” value reads like this: under setting [2], 384 nM; under setting [3], 37.1 nM; under setting [4], 43.4 nM.

Take “ACAAGCUUUGUUGUGGGUGACAUGAGGAUCACCCAUGUUUGCCGCGUCUUGUGGGCCCGGGCCCGCGGCCCGGGCCC [-42.5, -64.4, A 12%] (Eterna round: R97, puzzle: Sensor, turn-off variant 1)”: the “apparent KD of MS2 coat protein” value is, setting by setting: (input ligand: FMN 200 uM) 202 nM; (input ligand: none) 173 nM.

Consider “CCGUGGCAAGGAUAUACGUAGGAGAGGAAGGCAAGAGGAGGACAUGAGGAUCACCCAUGUAGAAGGUGCAGAUC [JR_Exclu2_Sub029] (puzzle: Exclusion 2)”, for which the “apparent KD of MS2 coat protein” value runs as follows: under setting [2], 62.3 nM; under setting [3], 77.4 nM; under setting [4], 94.5 nM.

Regarding “AAUAACAGAGGAUAUACGAAAAUAAGCGGAAACGCAAAGGGACAUGAGGAUCACCCAUGUAGAAGGCUGGAUAA [Tetraloop... 61% 2] (Eterna round: R96, puzzle: Exclusion 2)”, the “apparent KD of MS2 coat protein” value runs as follows: (input ligand: FMN 200 uM) 204 nM; under setting [1], 19.6 nM; (input ligand: none) 34.2 nM.

Regarding “UCGUCGUCUGCGCCUGGACACAUGAGGAUCACCCAUGUCCCUAGCGGUUUACCGCUGUGACAAAACAAGCUGCUCGU [Eternabot (Original) Solution 25] (Eterna round: R97, puzzle: Sensor, turn-off variant 1)”, the “apparent KD of MS2 coat protein” value by setting is: (input ligand: FMN 200 uM) 145 nM; (input ligand: none) 185 nM.

For “GAUCGGACGUGGUCAGGUAACAUGAGGAUCACCCAUGUAGGUCUAGGAACAAGCUUUUUGAAAGCUCGUCUUAUAUA [JR_SV3TOV1_Sub057] (puzzle: Sensor v3, turn-off variant 1)”, the “apparent KD of MS2 coat protein” value under setting [2] was 44.8 nM, the “apparent KD of MS2 coat protein” value under setting [3] turned out to be 25.5 nM and the “apparent KD of MS2 coat protein” value under setting [4] turned out to be 49.3 nM.

For the sequence “AGCUGUGGCCGAGGAUAUACAUGAGGAUCACCCAUGUUACAUAAUUAAGCCGGAGAACCGGCUCCGUAGAAGGCGGUCUCAGCA [Eli eng2 - 003] (Eterna round: R96, puzzle: Exclusion NG 2)”, the “apparent KD of MS2 coat protein” value was 12.6 nM (input ligand: FMN 200 uM), 9.39 nM under setting [1] and 13.7 nM (input ligand: none).

As for “UAAAUAAGUGUGAGGAUAUGCUGGUCCUUGGAUCAGCAGAAGGCACAUGAGGAUCACCCAUGUAAUAUAUUUAU [Mat - Exclusion 4 - JL Mod - D61] (puzzle: Brourd's mod of Exclusion 4)”, under setting [3], the “apparent KD of MS2 coat protein” value is 68.1 nM.

Take “UAUAACCGAGGAUAUACAUGAGGAUCACCCAUGUAAUGUAGUAUAAUGUAUGUAAGAUGUAGAAGGUGGGAUGU (Eterna round: R97, puzzle: Exclusion 3)”: the “apparent KD of MS2 coat protein” value reads like this: (input ligand: FMN 200 uM) 56.2 nM; (input ligand: none) 45.2 nM.
